In the Human Domainome abundance scans (Beltran et al. 2025):

B1: Zinc finger homeobox protein 3, residues 2643 to 2698; numbered along this chain, Q15911 (parent)
chain: RLRTTITPEQLEILYQKYLLDSNPTRKMLDHIAHEVGLKKRVVQVWFQNTRARERK

Variants of: B1
Assay: abundance fitness (aPCA) (normalised: wild type 0, dead -1); higher = more abundant; growth selection in yeast, the domain comes from the species named
Conditions: Homo sapiens

Abundance fitness of substitutions, site by site:
I13: L -0.084 | H 0.067
S22: W -0.491 | T -0.315 | G -0.034 | N -0.273 | P 0.099 | H -0.24 | L -0.643 | R -0.526 | M -0.247 | A -0.003 | D 0.075 | C -0.136 | I -0.589 | K -0.178 | Y -0.624 | V -0.395 | Q 0.037
T7: P 0.101 | C -0.244 | A 0.08 | V -0.688 | M -0.228 | R -0.443 | S -0.169 | E 0.087 | N -0.338 | Y -0.487 | W -0.719 | L -0.212 | G -0.072
Q10: Y -0.792 | T -0.296 | S -0.48 | I -0.27 | H -0.356 | K -0.432 | N -0.385 | C -0.52 | L -0.646 | A -0.212 | F -0.959 | V -0.321 | M -0.411 | P -0.717 | E -0.516 | W -0.856 | D 0.224 | R -0.755 | G -0.854
L14: V -0.926 | H -0.793 | S -0.763 | N -1.14 | K -0.899 | R -0.847 | T -1.04 | A -0.908 | Q -0.895 | W -0.758 | E -0.791 | D -0.568 | C -0.886 | G -0.956 | M -0.17 | I -0.951 | P -0.879
Y15: S 0.138 | G 0.126 | K 0.051 | T -0.007 | V -0.123 | L 0.016 | C -0.368 | A -0.202 | F -0.444 | Q 0.244 | R 0.032 | H -0.152 | I 0.183 | M -0.049 | W 0.072
E9: F -0.495 | D -0.042 | S -0.267 | R -0.277 | W -0.516 | G -0.234 | Y -0.286 | L -0.31 | I -0.241 | M -0.272 | P -0.293 | C -0.712 | N -0.218 | H -0.229 | Q -0.038 | V -0.246 | T -0.211
E12: K -0.625 | G -0.228 | S -0.114 | D -0.109 | L -0.188 | T 0.041 | A -0.07 | F -0.282 | N -0.074 | W -0.749 | P -0.87 | M 0.335 | V -0.396 | C -0.111 | I -0.438 | Y -0.454 | H -0.069 | Q -0.049
N23: L -0.389 | D -0.336 | H -0.354 | R -0.118 | S -0.113 | G -0.276 | Q 0.066 | K -0.335 | P -0.965 | W -0.155 | F 0.149 | C -0.594 | A -0.23 | I -0.414 | Y -0.1 | V -0.37 | T -0.379
Y18: N -0.705 | C -0.696 | V -0.644 | K -0.662 | Q -0.698 | I -0.62 | F 0.251 | H -1.03 | E -0.948 | G -0.899 | D -0.96 | R -0.865 | W -0.401 | M -0.373 | T -1.03 | L -0.552 | P -0.847
K17: A -0.08 | V -0.52 | E 0.007 | N 0.228 | Y -0.096 | I -0.628 | T -0.59 | P -1.05 | F 0.528 | G -0.528 | R 0.099 | M 0.114 | D -0.651 | L -0.303 | W -0.056
